Assay results taken from patent US20230364207A1.

B1: IdeE combinatorial mutant E97D_del18 (protein)
chain: ITSVWTKGVTPLTPEQFRYNNEDVIHAPYLAHQGWYDITKAFDGKDNLLCGAATAGNMLHWWFDQNKTEIEAYLSKHPDKQKIIFNNQELFDLKAAIDTKDSQTNSQLFNYFRDKAFPNLSARQLGVMPDLVLDMFINGYYLNVFKTQSTDVNRPYQDKDKRGGIFDAVFTRGDQTTLLTARHDLKNKGLNDISTIIKQELTEGRALALSHTYANVSISHVINLWGADFNAEGNLEAIYVTDSDANASIGMKKYFVGINAHRHVAISAKKIEGENIGAQVLGLFTLSSGKDIWQKLSHHHHHH

Legend:
trastuzumab = assay: cell-based or functional assay
[1] = target: IgG in the sera of rabbits
[2] = target: human IVIg (an intravenous human immunoglobulin)
[3] = target: rabbit IgG (rabbit polyclonal IgG antibody 1 and 2)
[4] = target: IgG in the sera of monkeys
[5] = target: IgG1 in the sera of humans

Row | Molecule | Fold of activity relative to wild-type (ELISA-based human IgG1 cleavage) (trastuzumab) [fold] | activity of cleaving human IgG1 relative to wild-type IdeE (SDS-PAGE) (trastuzumab) [fold] | further results
1 | IdeE mutant E97D (enzyme) | 2 | 2 | 
2 | IdeE mutant A10K (enzyme) | 1.99 |  | 
3 | IdeE mutant T8E (enzyme) | 2.09 |  | 
4 | IdeE mutant T24S (enzyme) | 2.18 |  | 
5 | IdeE mutant R280H (enzyme) | 2.3 | 2 | 
6 | IdeE mutant A59V (enzyme) | 2.68 | 2 | 
7 | IdeE mutant A10R (enzyme) | 2.2 |  | 
8 | IdeE C-terminal truncated mutant WT_delC5 (enzyme) |  |  | cleavage activity on human IgG1 relative to wild-type IdeE (SDS-PAGE) (trastuzumab): > 2 fold
9 | IdeE mutant T24A (enzyme) | 2.23 | 2 | 
10 | IdeE mutant T8W (enzyme) | 2.58 | 2 | 
11 | IdeE mutant R280K (enzyme) | 2.2 |  | 
12 | IdeE mutant T24G (enzyme) | 2.09 |  | 
13 | IdeE mutant A59L (enzyme) | 2.41 | 2 | 
14 | IdeE mutant A59I (enzyme) | 2.31 |  | 
15 | IdeE C-terminal truncated mutant WT_delC10 (enzyme) |  |  | cleavage activity on human IgG1 relative to wild-type IdeE (SDS-PAGE) (trastuzumab): > 2 fold
16 | IdeE mutant T8Y (enzyme) | 2.3 |  | 
17 | IdeE mutant T8D (enzyme) | 2.21 | 2 | 
18 | B1 |  |  | cleavage of serum IgG of different species (SDS-PAGE) [1]: IgG in the sera of rabbits was cleaved most effectively; cleavage of human IVIg in mouse serum and plasma in vitro (SDS-PAGE) [2]: E97D_del18 can effectively cleave human IVIg in both the sera and plasmas of mice; cleavage in mouse serum in vitro (SDS-PAGE, 25 kD Fc fragment) (IgG in the sera of mice): has very low or no activity of cleaving IgG1 in the sera of mice; cleavage of serum IgG of different species (SDS-PAGE) (IgG in the sera of mice): IgG in the sera of rats and mice was nearly uncleaved; cleavage of serum IgG of different species (SDS-PAGE) (IgG in the sera of pigs): IgG in the sera of pigs was cleaved more effectively; cleavage of serum IgG of different species (SDS-PAGE) (IgG in the sera of rats): IgG in the sera of rats and mice was nearly uncleaved; cleavage of immunoglobulins of different species (SDS-PAGE) [3]: E97D_del18 can effectively cleave ... rabbit IgG; cleavage of immunoglobulins of different species (SDS-PAGE) (dog IgG): E97D_del18 can effectively cleave dog IgG; cleavage of serum IgG of different species (SDS-PAGE) (dog IgG): E97D_del18 can effectively cleave IgG in the sera of rabbits, dogs and monkeys; cleavage of serum IgG of different species (SDS-PAGE) [4]: E97D_del18 can effectively cleave IgG in the sera of rabbits, dogs and monkeys; cleavage in human serum in vitro (SDS-PAGE, 25 kD Fc fragment) [5]: E97D_del18 can effectively and specifically cleave IgG1 in the sera of humans
